We go through 28 molecules from paper PMC11488661 (Science immunology, 2024).

Where a chain is given by its changes, count along the chain named.

The labels stand for the following.
B1: g5-D78-13_CLK19 (antibody, V domains shown)
VH: QVQLVQSGAEVKKPGASVKVSCKASGYIFTDYNMHWVRQAPGQGLEWMGWINPSFGGRNIVQKFQGRVTMTRDTSISTAYMELSGLRSDDTAVYFCTPVLAPFRWRFAYWGQGTLVTVSS
VL: DIQMTQSPSSLSASVGDRVTITCQASQDINYLNWYQQKPGKAPKLLIYDASNLETGVPSRFSGSGSGTDFTFTISSLQPEDIATYYCQQYAAFGPGTKVNIK
B2: g5-D78-15_CLK19 (antibody, V domains shown)
VH: B1 VH with R106P, A108V
VL: B1 VL with T71S, N100D
B3: g28v2-D58-5_CLK19 (antibody, V domains shown)
VH: QVQLVQSGAEVKKPGASVKVSCKASGYTFTGYFIHWVRQAPGQGLEWMGWINPNRGGTNYAQKFQGRVTMTRDTSTSTAYMDLSRLRSDDTAMYYCTVVLAAYRWPFAYWGQGTLVTVSS
VL: DIRVTQSPSSLSASVGDRVTITCQANQDIRNYLNWYQQKPGKAPKLLIYDVSKLETGVPSRFSGSGSGTDFTFTISSLQSEDIATYYCQQYETFGPGTKVDIK
B4: g28v2-D46-2_CLK19 (antibody, V domains shown)
VH: QVQLLQSGDEVKKPGASVRVSCKASGYTFTAYFLHWVRQAPGQGLEWMGWINPHSGGTNYAQRFQDRVTMTRDTSISTAYMELSRLRSDDTAVYYCTPVLADYRWRFAYWGQGTLVTVSS
VL: DIQMTQSPSSLSASVGDRVTITCQASQDINNYLNWYQQKPGKAPKLLIYDTTNLEIGVPSRFSGSGSGTDFTFTISSLQPEDFATYYCQQYAAFGPGTKVDIK
B5: g5-D78-1_CLK19 (antibody, V domains shown)
VH: QVQLVQSGAEVKKPGASVKVSCKASGYTFTGYFLHWVRQAPGQGLEWMGWINPNRGGVNYAQKFQGRVTMTRDTSINTAYMELSRLRSDDSAVYYCTPVLTNFRWRFDFWGQGTLVTVSS
VL: B4 VL with N30K, K42T, T52S, I56T, F83I, A92E, A93T
B6: g28v2-D46-6_CLK09 (antibody, V domains shown)
VH: QVQLVQSGAEVKKPGASVKVSCKASGYTFTDYYMHWVRQAPGQGPEWMGWLNPNNGGRNFARKFQDRVTVTRDTSLSTAYMELSRLRSDDTAVYYCARVGEKWTFDIWGQGTMVTVSS
VL: B4 VL with D17G, N30S, T51V, T52S, I56T, F83I, A92E, A93F, P96G, D101E
B7: g28v2-D46-3_CLK19 (antibody, V domains shown)
VH: QVQLVQSGAEVKKPGAAVKVSCKASGYTFTDYYMHWVRQAPGQGLEWMGWINPRYGGTNYAQKFQDRVTMTRDTSISTTYMELRRLKSDETAVYYCTTVMADYRWPFDYWGQGTLVTVSS
VL: B4 VL with T22S, Y32C, T52S, E55G, I56T, F83I, A84G, A92D, A93T
B8: g28v2-D46-4_CLK19 (antibody, V domains shown)
VH: B7 VH with M34I, R54T
VL: B4 VL with T22S, T52S, E55G, I56T, F83I, A84G, A92D, A93T
B9: g28v2-D46-9_CLK19 (antibody, V domains shown)
VH: QVQLVQSGAEVKKPGASVRVSCKASGYTFTGYYMHWVRQAPGQGLEWMGWINPNNGGVNYAHKFQGRVTMTRDTSISTAYMELSRLRSDDTAVYYCTTALAGHGWRFDYWGQGTLVTVSS
VL: B4 VL with S14Y, N30S, K39I, T51A, T52S, I56A, G66R, T69A, F83I, A93T
B10: g28v2-D58-11_CLK09 (antibody, V domains shown)
VH: QVQLVQSGAEVKKPGASVKVSCKASGYTFTDYHIHWVRQAPGQGLEWMGWINPRGGGTNYAQKFQGRVTMTRDTSISTAYMDLSRLRSDDTAVYYCTPVLATFRWRFDYWGQGTLVTVSS
VL: B4 VL with N30R, T51A, T52S, L54F, I56T, F83I, A92E, A93F, P96G, D101E
B11: g28v2-D46-5_CLK19 (antibody, V domains shown)
VH: B4 VH with F33Y, I51L, N52Y, H54Q, D66G, Y80F, T97A
VL: B4 VL with F83I
B12: g28v2-D58-6_CLK19 (antibody, V domains shown)
VH: B10 VH with D31G, H33Y, V37F, I51M, R54S, G55Y, S77N, D82E, T102A, F103Y
VL: B3 VL with R3Q, V4M, D28A, K53N
B13: g5-D78-10_CLK19 (antibody, V domains shown)
VH: QVQLVQSGAEVKKPGASVKVSCKASGYTFTGYFIHWVRQAPGQGLEWMGWINPSYGAVNYARKFQGRVTMTRDTSISTAYMELQRLRSDDTAIYHCTIALAGYRWGFDYWGQGALVTVSS
VL: DIQMTQSPSSLSAFVGDRVTITCQARLDIRYSLNWYQQKPGKAPNLLIYDASNLETGVPSRFSGSGSGTNFTFTISTLQPEDIATYYCQQYETFGPGTKVHIK
B14: g5-D78-18_CLK19 (antibody, V domains shown)
VH: B13 VH with F33Y, S54T, R85S
VL: B13 VL with H101D
B15: g5-D78-14_CLK19 (antibody, V domains shown)
VH: B13 VH with F33Y, S77T, H95Y
VL: B13 VL with S76N, H101D
B16: g5-D78-12_CLK19 (antibody, V domains shown)
VH: B13 VH with F33Y
VL: B13 VL with S76N, H101D
B17: g5-D78-16_CLK19 (antibody, V domains shown)
VH: B13 VH with F33Y
VL: B13 VL with I102F
B18: g28v2-D46-7_CLK09 (antibody, V domains shown)
VH: B10 VH with D31G, I34M, L45P, R54N, D82E, Y94F, T97A, T102D, F103Y, R104G
VL: DIQMTQSPSSLSASVGGRVTITCQASQDISSYLNWYQQKPGKAPKLLIYDASNLEAGVPSRFSGSGSGTDFAFTISSLQPEDIATYYCQQYEFFGGGTKVEIK
B19: g28v2-D58-10_CLK19 (antibody, V domains shown)
VH: B10 VH with I34M
VL: not shown
B20: g28v2-D58-3_CLK09 (antibody, V domains shown)
VH: QVQLVQSGADVRKPGASVKVSCKASGYTFTDYYVHWVRQAPGQGLEWMGWINPNRGGTNYPQKFQGRVTMTRDTSISTAYMELSRLRSDDTAVYYCALWFGEKKTFDIWGQGTMVTVSS
VL: B18 VL with G17D, D28G, I29V, S31N, A51V, A56T, A72T
B21: g28v2-D58-7_CLK09 (antibody, V domains shown)
VH: B10 VH with D31G, H33Y, I51M, R54T, S77N, D82E, T102D, F103Y
VL: B18 VL with S14F, G17D, D28G, I29V, S31K, A56T, A72T
B22: g28v2-D58-2_CLK09 (antibody, V domains shown)
VH: QIQLVQSGAEVKKPGASVKVSCKASGYTFTDYFLHWVRQAPGQDLEWMGWINPTFGGTNYARNFQGRVTMTRDTSISTAYLELNRLRSDDTAVYYCATDLASNRWRFDYWGQGTLVTVSS
VL: B18 VL with I2L, G17D, S31N, D50G, A56T, A72T, T85I
B23: g28v2-D58-9_CLK09 (antibody, V domains shown)
VH: QVQLVQSGAEVKKPGASVKVSCKASGNTFTGNYIHWIRQAPGQGLEWMGWLNPNSGGTNYAQQLQGRVTMTRDTSISTAYMELRRLRSDDTAVYYCARVEGLWFGKEWAFDIWGQGTMVTVSS
VL: B18 VL with G17D, D28G, I29V, S31N, P44L, A51V, A56T, A72T
B24: g28v2-D58-8_CLK09 (antibody, V domains shown)
VH: QVQLVQSGAEVKKPGASVKVSCKASGYTFTDYYLHWVRQAPGQGLEWMGWINPSTGGRNHARQFQGRVAMTRDTSISTAYMELSRLRSDDTAVYFCTPVLATFRWRFVYWGQGTLVTVSS
VL: B18 VL with G17D, D28G, I29V, S31N, A51V, A56T, A72T
B25: g28v2-D58-4_CLK09 (antibody, V domains shown)
VH: B20 VH with D10E, R12K, T30I, D31G, V34I
VL: B18 VL with G17D, D28G, I29V, S31N, Y36F, P44L, A51V, A56T, A72T
B26: g28v2-D46-8_CLK09 (antibody, V domains shown)
VH: B9 VH with G31D, V58I
VL: B18 VL with D28G, S31T, A51V, A56T, A72T, I83F
B27: g28v2-D58-1_CLK09 (antibody, V domains shown)
VH: B22 VH with L34I, E46V, T54I, F55Y, N63S, Y80F, S102D
VL: B18 VL with G17D, S30T, Y32F, A56T, A72T
B28: g5-D78-19_CLK09 (antibody, V domains shown)
VH: QVQLVQSGAEVKKPGVSVKVSCKASGYTFNGYYMHWVRQAPGQGLEWMGWINPNNGGMNVARRFQDRVTLTRDTSFTTAYMELSRLRSDDSAVYYCARVGGLWFGEKWTFDIWGQGTMVTVSS
VL: B18 VL with G17D, A25T, S31T, Y32F, K39R, D50G, E55A, A56T, A72T

The experiment concerns the target eOD-GT8 (monomeric ligand) (Human immunodeficiency virus 1, …).
The molecule B1 displayed a Kd of 4.9 nM.

For the molecule B2, the Kd was determined as 0.92 nM.

For B3, the Kd was 39 nM.

B4 displayed a Kd of 0.344 nM.

Molecule B5 returned a Kd of 8 nM.

In the case of B6, the Kd was determined as 0.211 nM.

Take B7: binding was characterised by a dissociation constant (Kd) of 0.338 nM.

Molecule B8 showed a Kd of 0.106 nM.

The molecule B9 gave an equilibrium dissociation constant (Kd) of 0.0475 nM.

B10 yielded a Kd of 3.65 nM.

The molecule B11 came in with a Kd of 19.7 nM.

As for B12, the Kd amounted to 1.06 nM.

Molecule B13 yielded a Kd of 38 nM.

Molecule B14 came in with a Kd of 12 nM.

B15 came in with a Kd of 11 nM.

Molecule B16 registered a Kd of 12 nM.

As for B17, the affinity, expressed as Kd, was 12 nM.

The molecule B18 had a Kd of 57.3 nM.

In turn, B19 came in with a Kd of 3.69 nM.

On to B20, for which the affinity, expressed as Kd, was 1.38 nM.

With B21, the Kd came out at 0.512 nM.

On to B22, for which the affinity, expressed as Kd, was 1.55 nM.

B23 had a Kd of 0.0455 nM.

For B24, the Kd was 0.444 nM.

Regarding B25, the affinity, expressed as Kd, was 3.48 nM.

On to B26, for which binding was put at a Kd of 0.303 nM.

B27 returned a Kd of 20.7 nM.

B28 had a Kd of 0.2 nM.
